Consider four substances from patent publication US20220235126A1.

For assay [1], the target named is hTSLPR and hIL-7R on Baf3 cells (human) (UniProt Q9HC73).
Assay [2] has the same target. This is another data set of the same source.
The target of the next assay is human FcRn-mmh (human) (UniProt P55899). Description: SPR, hFcRn.mmh captured, 25 C, pH 7.4; kinetics inconclusive. Background: Surface plasmon resonance follows binding to a sensor surface in real time, without labels.
Assay [3] concerns the target hTSLPR and hIL-7R on Baf3 cells (human) (UniProt Q9HC73). Description: cell-based or functional assay.

Chain of UniProt Q9HC73 (Q9HC73 23-371, chain 1 of 2): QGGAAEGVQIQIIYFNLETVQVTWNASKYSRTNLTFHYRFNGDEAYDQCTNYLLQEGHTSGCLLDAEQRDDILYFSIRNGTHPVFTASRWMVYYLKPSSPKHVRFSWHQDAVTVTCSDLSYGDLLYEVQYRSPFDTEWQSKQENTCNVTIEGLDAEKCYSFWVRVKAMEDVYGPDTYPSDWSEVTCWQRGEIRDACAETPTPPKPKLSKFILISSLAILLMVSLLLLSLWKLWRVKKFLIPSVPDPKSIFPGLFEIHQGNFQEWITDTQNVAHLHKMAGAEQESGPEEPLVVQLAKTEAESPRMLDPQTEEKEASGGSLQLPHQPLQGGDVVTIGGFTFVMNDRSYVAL
Chain of UniProt Q9HC73 (P16871 21-459, chain 2 of 2, further chain): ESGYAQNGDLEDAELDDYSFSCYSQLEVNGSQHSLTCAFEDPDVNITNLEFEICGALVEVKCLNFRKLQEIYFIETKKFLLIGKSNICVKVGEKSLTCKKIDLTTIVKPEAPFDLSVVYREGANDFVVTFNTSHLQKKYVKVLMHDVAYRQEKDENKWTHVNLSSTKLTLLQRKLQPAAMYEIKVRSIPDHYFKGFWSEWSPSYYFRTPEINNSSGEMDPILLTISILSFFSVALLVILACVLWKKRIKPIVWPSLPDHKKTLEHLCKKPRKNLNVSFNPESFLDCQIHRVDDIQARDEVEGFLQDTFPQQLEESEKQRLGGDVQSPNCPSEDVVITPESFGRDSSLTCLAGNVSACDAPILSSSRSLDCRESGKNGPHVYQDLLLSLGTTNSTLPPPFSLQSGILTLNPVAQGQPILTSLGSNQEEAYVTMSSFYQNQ
Chain of UniProt P55899 (P55899 24-297): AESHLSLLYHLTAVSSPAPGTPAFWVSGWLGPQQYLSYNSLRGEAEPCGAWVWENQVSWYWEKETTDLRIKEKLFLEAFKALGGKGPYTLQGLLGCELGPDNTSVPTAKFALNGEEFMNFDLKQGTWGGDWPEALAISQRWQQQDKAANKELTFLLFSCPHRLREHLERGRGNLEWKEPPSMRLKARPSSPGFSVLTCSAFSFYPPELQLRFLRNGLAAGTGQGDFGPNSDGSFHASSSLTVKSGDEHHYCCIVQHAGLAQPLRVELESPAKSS

Consider “REGN4009, recombinant hTSLP.mmh (from UniProt Q969D9 29-159) (ligand)”, for which, in assay [1], the EC50, STAT3-luciferase dose response of hTSLP mmh in BAF3/hIL7R/hTSLPR/Stat3-Luc cells came to 0.0613 nM. The EC50 of hTSLP mmh in the Stat3-Luc reporter assay (number only, curve not drawn) in assay [2] was found to be 0.075 nM.

The substance “REGN1932, anti-FelD1 IgG1 isotype control (antibody)” yielded a 5 uM mAb Bound (RU) with human FcRn-mmh (human) of 9.1 RU.

Substance “human TSLP (hTSLP) (from UniProt Q969D9 29-159) (ligand)” had a hTSLP EC50 [M], STAT3-Luciferase reporter assay in assay [3] of 4.35e-11 M.

“REGN1945, anti-fel d 1 IgG4 isotype control (antibody)” gave a 5 uM mAb Bound (RU) in the assay with human FcRn-mmh (human) of 8 RU.
